Columns and labels:
[1] = molecular target: PII(S49E), phosphomimetic variant (Synechocystis sp. PCC 6803) (UniProt Q55247); experiment: BLI
[2] = molecular target: PII(WT)-His, signaling protein PII from Synechocystis sp. PCC 6803 (Synechocystis sp. PCC 6803) (UniProt Q55247); experiment: BLI

Kd [1] [µM]	Kd [2] [µM]	binding signal, fold lower than that of GST-PirA [2] [fold]	Substance
2.5	2.9	–	GST-PirA (GST-tagged PII-interacting regulator of arginine synthesis, Ssr0692) (natural protein)
–	–	6	tag-free PirA (natural protein)

Reference: publication doi:10.1101/2020.11.23.395327
